T1: hiR2-FL-D569E-T7 (human, UniProt Q6PJF5 1-856)
T1 sequence: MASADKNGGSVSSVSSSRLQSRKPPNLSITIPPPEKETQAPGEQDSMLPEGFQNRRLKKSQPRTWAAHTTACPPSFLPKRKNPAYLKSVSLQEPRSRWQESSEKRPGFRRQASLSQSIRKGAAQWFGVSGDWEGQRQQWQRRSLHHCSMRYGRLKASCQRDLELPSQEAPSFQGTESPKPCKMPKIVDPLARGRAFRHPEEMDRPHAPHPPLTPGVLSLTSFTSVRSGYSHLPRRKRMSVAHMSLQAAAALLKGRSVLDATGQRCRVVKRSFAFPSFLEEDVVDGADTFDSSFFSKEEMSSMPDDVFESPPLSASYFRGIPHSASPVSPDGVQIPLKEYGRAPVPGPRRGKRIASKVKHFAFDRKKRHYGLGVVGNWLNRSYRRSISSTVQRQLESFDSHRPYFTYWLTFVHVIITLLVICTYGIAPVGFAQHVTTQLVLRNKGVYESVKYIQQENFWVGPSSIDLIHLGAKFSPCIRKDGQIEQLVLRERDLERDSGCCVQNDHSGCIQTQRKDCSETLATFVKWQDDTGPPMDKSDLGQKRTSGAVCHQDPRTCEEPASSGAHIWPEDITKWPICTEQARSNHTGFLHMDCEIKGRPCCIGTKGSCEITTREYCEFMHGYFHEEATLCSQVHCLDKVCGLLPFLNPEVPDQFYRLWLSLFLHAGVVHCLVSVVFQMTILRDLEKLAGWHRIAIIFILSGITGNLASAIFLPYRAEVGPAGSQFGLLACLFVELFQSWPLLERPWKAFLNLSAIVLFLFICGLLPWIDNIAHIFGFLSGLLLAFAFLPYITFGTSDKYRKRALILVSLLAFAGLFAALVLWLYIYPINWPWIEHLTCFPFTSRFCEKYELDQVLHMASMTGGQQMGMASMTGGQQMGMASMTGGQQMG


Molecular target: T1, hiR2-FL-D569E-T7
Test: FACS, MEF-DKO cells, 3 µg/ml
Outline: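 MEF-DKO cells expressing T7-tagged full-length hiR2 point mutants were stained on ice for 1 h with purified antibodies at 3 μg/ml in FACS buffer. Detection used PE-conjugated goat anti-mouse IgG F(ab′)2 (1:100, 1 h on ice), read by flow cytometry; buffer-only wells served as controls.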

Binder	loss of binding vs wild type
antibody 48 (antibody, V domains shown, mouse IgG, kappa light chain; also called clone #48; purified antibody 48) VH: QVQLQQSGTELVRPGTSVKVSCKASGYAFTNYLIEWVKQRPGQGLEWIGVINPGSGFTKYNEKFKGKATLTADKSSSTVYMHLSSLTSEDSAVYFCARGLYRAMDYWGQGTSVTVSS VL: DIQMTQSPASQSASLGESVTITCLASQTIATWLAWYQQKPGKSPQLLIYGATTLADGVPSRFSGGGSGTKFSFKISSLQAEDFVSYYCQQLYSTPYTFGGGTKLEIK	≥ 30%
antibody 50 (antibody, V domains shown, mouse IgG, kappa light chain; also called clone #50; purified antibody 50) VH: QVQLQQSGAELVRPGASVKVSCKASGYAFSNYLIEWVKQRPGQGLEWIGVINPGSGFTKYNEKFKGKATLTADKSSSTAYMQLSSLTSEDSAVYFCARGLYRAMDYWGQGTSVTVSS VL: DIQMTQSPASQSASLGESVTITCLASQTIGTWLAWYQQKPGKSPQLLIYAAASLADGVPSRFSGGGSGTKFSFKISSLQAEDFVNYYCQQIYSTPYTFGGGTKLEIK	≥ 30%
